# Test results from the DeepSol protein solubility set.
# Assay: soluble on expression in E. coli; label from the status in PepcDB or PDB records
row,Sequence,soluble on expression in E. coli
1,MLVDSFNRVIDYIRVSVTKQCNFRCQYCMPATPLNFFDNEELLPLDNVLEFLKIAIDEGVKKIRITGGEPLLRKGLDEFIAKLHAYNKEVELVLSTNGFLLKKMAKDLKNAGLAQVNVSLDSLKSDRVLKISQKDALKNTLEGIEESLKVGLKLKLNTVVIKSVNDDEILELLEYAKNRHIQIRYIEFMENTHAKSLVKGLKEREILDLIAQKYQIIEAEKPKQGSSKIYTLENGYQFGIIAPHSDDFCQSCNRIRLASDGKICPCLYYQDAIDAKEAIINKDTKNIKRLLKQSVINKPEKNMWNDKNSETPTRAFYYTGGLEHHHHHH,not soluble
2,SAAPRVFPLSCAVQQYAWGKMGSNSEVARLLASSDPLAQIAEDKPYAELWMGTHPRGDAKILDNRISQKTLSQWIAENQDSLGSKVKDTFNGNLPFLFKVLSVETPLSIQAHPNKELAEKLHLQAPQHYPDANHKPEMAIALTPFQGLCGFRPVEEIVTFLKTAAGNNMEDIFGELLLQLHQQYPGDIGCFAIYFLNLLTLKPGEAMFLEANVPHAYLKGDCVECMACSDNTVRAGLTPKFIDVPTLCEMLSYTPSSSKDRLFLPTRSQEDPYLSIYDPPVPDFTIMKTEVPGSVTEYKVLALDSASILLMVQGTVIASTPTTQTPIPLQRGGVLFIGANESVSLKLTEPKDLLIFRACCLL,soluble
3,MGSDKIHHHHHHVRACCGDQRAMSATDHGLPAIAELTDKELEVLRLLTAGHTIKSIAALLDRSEASINERLRDARRKTGVGSSRELARLVAGQENWPRKTDLSTPAVSGDADGQPALAARHWPKGTIAMFTLLPLAAGLMLVSAASQQADGPQSSHAAAAIASPLVGKWSLDTSRIPADERPRSVMIAFSVSPDQQWSTQVDIVAPDGSKMTATSTARADGVAVPISGNIPIFDTASLRQPAPNTLVMTLGKSGTPVATRVYTVARDGNSMTETIVWADKTMPKMETTYFNRVG,not soluble
4,MGSDKIHHHHHHMVAQIQELEAQHWVKTRSSLDPNESTFLIWKGKIYAFIPGEKRQLLFKILGLSVSRCIPTAEGSWDFTSRELTYYLNPKTDEILRKWENPWTSETVPVIHVANNPVQGKFEGNFPAQVDGDSTTFVFDIFPYYPNPLADDPKFAEYSPNPIYQAAELFKLTVPTADLFNSALPSVSELKLSWDRIGQWLPWMKMGDRPGQLIYSAVGSKVNGLTELPPLLQDEINNRIPLYKQAPKALIDGEDMTSWLYFQKHFPAYLAGEIFPLPQAEEL,not soluble
5,MHKRFAALAAPLLYLACASAQADTMRCGSALVSVGDRAFEVQQKCGDPDHRDDVGYTLGSYDRREFKVEEWVYGPRNGVTYILTFEANKLKRIEFKR,not soluble
6,MGSDKIHHHHHHMNDFIKFTGPADVLAFIPHTLGQTPTESFVALTMQGNKIGATLRVDAPFGQDPVGYAQTIVSYLTADEAATGSLLVIYTDESTTDGSSPYAGHVQALSTELETAGMPLQDAWLVTSELWRNYHCTDTGCCPDQPLDAITTSNGNAALIYRGSAVTGFIAPAPFTGDETAREAITARKPDGWPEDLEASRAAWARVLKDPKSLTTETAYQLAGALQHPTIRDYMMGDIVPHAPEQFTSVMLGVFPTRPDWARVDTAQEVAFELMKATPEGQRAPMLCLIGWLEWLKGQSSFAARYFKLALEDTAGYRLAELLDELVNRGLLADCSRDRKKAYDRRLKR,not soluble
7,VLKQGYMMKKGHRRKNWTERWFVLKPNIISYYVSEDLKDKKGDILLDENCCVESLPDKDGKKCLFLVKCFDKTFEISASDKKKKQEWIQAIHSTIHLLKLGS,soluble
8,RSTIGAGQKVNVEFVSANPTGPMHVGHVRGAVVGDALARLLAYAGWNVTREYYINDGGAQVDVLARSAFERYREAHGLEPEIREGLYPGDYLIPVGEALKAKYGDSLLDKGEQHWLTEVREFATEMMMQMIREDLAALGVEMDVYSSEKALYGTGKIEAALDRLKEMDLIYEGVLEPPKGKTPEDWEPREQTLFRSTAHGDDVDRPVKKSDGSWTYFAPDIAYHYDKVTRGFDQLIDIFGADHGGYVKRMKAAVAALSAGRVPLDIKLIQLVKLWKNGEPFKMSKRAGTYVTLRDVVEQVGTDVTRFVMLTRKNDATLDFDFDKVLEQSKENPVFYVQYANARINSVLRKAREQGMDVSDA,not soluble
9,HHHGIRMTRISREMMKELLSVYFIMGSNNTKADPVTVVQKALKGGATLYQFREKGGDALTGEARIKFAEKAQAACREAGVPFIVNDDVELALNLKADGIHIGQEDANAKEVRAAIGDMILGVAAHTMSEVKQAEEDGADYVGLGPIYPTETKKDTRAVQGVSLIEAVRRQGISIPIVGIGGITIDNAAPVIQAGADGVSMISAISQAEDPESAARKFREEIQTYKTGR,soluble
10,MAHHHHHHMNVAKREFIRGMMAHYRASLPPPEHSVVIHELQKRVLDIGMLAVNKAHVELFGSHVSGFCTPHSDADISLTYRNFSPWLQGMERVDEQNNKRMTRFGKEASAMGMEDVRYIRARIPVVQFTDGVTGIHCDVSIGNIGGVENSKILCAIRQVFPDFYGAYIHLVKAWGKAREVIAPERSTFNSFTVTTMALMVLQELGLLPVFSKPTGEFGELTVADAEMLLQEFKLPPIYDSLHDDDEKLGEAVFFCLQRFAEYYAKYDFSAGTVSLIHPRRHRTVYERVVRRHLELLGSRKRLEWEKHIAEHKEDGPLDENDFSASMQNETTQRPSNSPYVVEDFVNYVNCGRRVQASRVRHIQQEFNRLREMLIDKESELKFDEVFRESDTVPRFQGFEGVGTRDHRVKTFRPQ,not soluble
11,MIVDFYFDFLSPFSYLANQRLSKLAQDYGLTIRYNAIDLARVKIAIGNVGPSNRDLKVKLDYLKVDLQRWAQLYGIPLVFPANYNSRRMNIGFYYSGAEAQAAAYVNVVFNAVWGEGIAPDLESLPALVSEKLGWDRSAFEHFLSSNAATERYDEQTHAAIERKVFGVPTMFLGDEMWWGNDRLFMLESAMGRLCRQNADLSS,soluble
12,MGSDKIHHHHHHMDWLSKHYQQQKGYDELVGEGAVPRLPAAPLFDYLSTLDSSELRARRQAADAAILAMGITFTVYSEAGDIDRAWPFDIIPRILSRREWMRIEEGLKQRLQALNLFIDDIYNAQRIVVDGVFPAEVLASSRNFREACRGVHPPFGVWAHICGSDLVRDADGTVYVLEDNLRVPSGVSYMLENRQIMKRLFPELFKSSTILPVDDYPNRLYDTLAALSPREGERPVVAVLTPGIYNSAYFEHSYLAQQMGAYLAEGADFFVSRDDIVYLRTISGPQRVDVIYRRIDDEYMDPEVFFTDSALGIPGLLRAWRRGTVAIANAPGAGVADDKVVYAFVPDIIRYYLGAEPILPNVPTYLCMREADRDYVLSHLHELVVKPANESGGYGMLIGPRATSEERGRFAELIAANPRNYIAQPTLNLSTAPTLVEDHLEARHLDLRPFILQADKLYVTTGGLTRVAMQPGSLVVNSSQGGGSKDTWIVDEEAPCFRA,not soluble
13,MTECIFCHQLKANQLLTQSQYFKVVFDIDPIQKGHLLLISKDHYTSLTQLPKEGHYDLIDLQAALVAKLEQHLPISGVTSVSNDKELMDEGTHFHLHLIPRLTNDSFWEGITINQENWDLTPFLKHL,not soluble
14,EGSENLFITGDNLEALKLLQESYLGKIDMIYIDPPYNTGKDFVYQDNFKKTKKENDLSEGILDEEGDRLVKNEKSNGRYHSDWLTMIYPRLKLARNLLSDSGIIFVSIDENEIANLELLLTEIFGENNLAGTIVWDKRNPKGDSKGVSMQHEYIVAAAKNINIFSEFKEFKRPKKNAEIIL,not soluble
15,MGSDKIHHHHHHMSHQSTHPHHTWVQSHHPVHLETKSPPHKEPMFYYFAYGSCMCPVDLKRSLGENTHPYIIGPGVLKGYRLGFYLYLPSRKCGVLDIVKDPKASVKGVLYQLPLRLSEYLDQREGVSQNLYRHESVEIHSHSRVYQDVRTYVVVNKSEEEVAPNDWYFNVVLRGAVTCGLPEEYCWHLFNHMHKLQQRHQEQKFRRSA,not soluble
16,MVWFFEYYDGCGLAIKVKKKLYEAEGVQKVEIYETESMGKMLVIDGKIQLTELDEPFYHEMLVHVPMLSHENPRKVAVIGGGDGGALREVLKHNVERAVLVDIDRNVIDLSRKFLKIDHGAFEDERVEIAIMDGKEFLRDCEIFDVIIVDSTDPVGVSDTLFDREFFELARQKCDVISLQSQSPLIQKEYFRTLLVNSAPFERRDVYLSCVPTYPLALWSFIIGGEYDFSNLEERFERIKGKTVHYNPDVHRAAFALPEWLKKEVEACILEHHHHHH,soluble
17,MKSLEEILQYNEKFVEEKKYEEFVAGKFPNKKMVIISCMDTRLVELLPKAMNMRNGDVKIIKVAGAVISHPFGSIMRSILVAVYELGADEVCVVGHHDCGMAKIQASSTIEKMKERGITEEKLDMLRYSGIDLEQFLRGFSSVEESVEHSVSVLRNHPLLPEEVPVHGLVIDPDTGKLDLVVNGYDN,not soluble
18,MAHHHHHHMQMNSYAGGYTTHNRSYAAMVPPPMPMPPGWEMAYTPNGEIYYIDHNTRTTHWQLPAEYTMQQPVCSYRGPQRQRRGIDRSKAKTKMCMNIENGGTCSYGANCAFAHSSEELSTHPHFNSAPDAGYSAK,not soluble
19,MSSDNLVENIIAEVLGKVGDLKTPSAASQPGISQQEPAIPRKLCGLTEFVGTATGDSIGLVIANVDSALLDAMHLEKKYRSIGILGARTGAGPQIMAADEAVKATNTEVVAIELARDTKGGAGHGSLVLFGGQDVSDVKRAVEVALGELERTFGDIYANAAGHVELQYTARASYALEKAFGAPLGRACGVIVGAPAAIGVLMADTAIKSANVDVVAYNSPAKGTSFTNEVILIVSGDSGAVRQAVRSARDVGLTLLETMGGKAPSATTPYI,not soluble
20,MGSDKIHHHHHHMPFITKISTQKKNTERFNIFLDDKYAFSVDADVLVKFELKKGKELDDLDIIEIQYGDEVKKGFNRALDFLSYRMRSTKEVEDHLKKKETSPPVIAEVIHRLNDYKYLNDQEFAAAYVSTHKKTNGKGPDVLFRELRAKGIDDDTIKEALSSFSFEDQTREAVKHVEKLLKKDKKLSTKELKQRAQLQLQRKGFSFDVISAAMDQIEYENDEDTEKEALRLHAEKAFRKYRYDGSYESAMKVKQFLFRKGFSLDLIEQLLQEEEY,not soluble
21,MAHHHHHHMHLIYLKILFFSLLLDTFISSHTNIPRINNVTPKNVAINISPVVPIPDVITLDYIKENLEQIRLIKDIIIKGKLKKLKVLKQKCKKNKKDKEIKNEIENLEREIMDTRKLCNNYIKNEIKEIKSLKDQIVKDKIEKDRWKKDLLIDYELKRLMYKPDIERLKQLNEEYKKEELRVAKLKDNMFKIYQFILYLIPNTIYYTIEFINNIPEVELSLPKFLKKKKKKKVNHFSHYGVPYMK,soluble
22,MGSDKIHHHHHHMTTPTPVRAIVPTWLYEGLGLLVANPKVGKSTLMLQIVVAVTKGGEMWGQSVPRAKVLMIDLETNERRLRRKLEQAGAVGIESGWLLYATSWPRGLLGIDEIANTLDRDPEIKLVVIDTLQRFRDPGAGKQNAYAADYEALGPLQQLCRDRPGLAIVCVHHKRKSISDDPIDSISGSAAIAGACDSIWIMSRKGSEYTLHIQGRDWERDEDTFPIERVDQGWQLVNGPRYSSNEAEVLKHLEISGGMTGPQLGEALGIHRVSAYERLKRMADRGLVRFAGEHWHVS,not soluble
23,MTGQAAGPAAGPAAGQATKHAGGRRPGETRTREAILTAARVCFAERGFDATSLRRIAETAGVDQSLVHHFYGTKENLFLQALELPGKIEEAITAAAQGGLDGIGERVVRAHLSVWDDVSSRPALMTMVRSAAIHRAAAARLRETATGILARALGGVITGEDAMLRTSMVATQLVGLAMMRYVAHLEPLASADTDTVARHYGRAVQAIVTDRD,soluble
